# System: K562 CRISPRi cells
# Experiment: Constant region variant library pooled growth screen, K562
# Type: cell-based, human
# Settings: sgRNA constant region variants; activity relative to the original, un-modified constant region cr995
# Outline: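 K562 CRISPRi, duplicate transductions; puromycin 1 d 0.75 μg/mL then 1 d 0.85 μg/mL; >2000× coverage in spinner flasks; harvests at 4-8 d growth. Activity = phenotype ÷ phenotype with unmodified constant region.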
row,Molecule,Mean relative activity
1,"cr870 (nucleic acid, listed as DNA, chemistry not fully specified) guide: GTTTAAGAGCTAAGCTGGAAACAGCAAAGCAAGTTTAAATAAGGCTAGTCCGTTATCAACTTGAAAAAGTGGCACCGAGTCGGTGCT",1.04
2,"cr379 (nucleic acid, listed as DNA, chemistry not fully specified) guide: GTTTAAGAGCTAAGCTGGAAACAGCCTAGCAAGTTTAAATAAGGCTAGTCCGTTATCAACTTGAAAAAGTGGCACCGAGTCGGTGCT",1.041
3,"cr532 (nucleic acid, listed as DNA, chemistry not fully specified) guide: GTTTAAGAGCTAAGCTGGAAACAGCATAGCAAGTTTAAATAAGGCTAGTCCGTTATCAACGTGAAAACGTGACTCCGAGTCGGAGTT",1.093

# Same assay, conditions: sgRNA constant region variants; activity relative to the unmodified constant region cr995
row,Molecule,Mean relative activity
1,"cr125 (nucleic acid, listed as DNA, chemistry not fully specified) guide: GTTTAAGAGCTAAGCTGGAAACAGCATAGCAATTTTAAATAAGGCTAGTCCGTTATCAACTTGATAAAGTGGCACCGAGTCGGTGCT",0.2852
2,"cr982 (nucleic acid, listed as DNA, chemistry not fully specified) guide: GTTTAAGAGCTAAGCTGGAAACAGCATAGCAAGCTTAAATAAGGCTAGTCCGTTATCAACTTGAAAAAGTGGCAACGAGTCGTTGCT",0.2842
3,"cr076 (nucleic acid, listed as DNA, chemistry not fully specified) guide: AATTAAGAGCTAAGCTGGAAACAGCATAGCAAGTTTAAATAAGGCTAGTCCGTTATCAACTTGAAAAAGTGGCACCGAGTCGGTGCT",0.2741
4,"cr077 (nucleic acid, listed as DNA, chemistry not fully specified) guide: GATTAAGTGCTAAGCTGGAAACAGCATAGCAAGTTTAAATAAGGCTAGTCCGTTATCAACTTGAAAAAGTGGCACCGAGTCGGTGCT",0.2538
5,"cr344 (nucleic acid, listed as DNA, chemistry not fully specified) guide: GTTTAAGAGCTAAGCTGGAAACAGCATAGCAAGTTTAAATAAGGCTAGTCCATTATCAACTTGAATAAGTGGCACCGAGTCGGTGCT",0.2836
6,"cr073 (nucleic acid, listed as DNA, chemistry not fully specified) guide: GTTTTAGCGCTAAGCTGGAAACAGCATAGCAAGTTTAAATAAGGCTAGTCCGTTATCAACTTGAAAAAGTGGCACCGAGTCGGTGCT",0.265
7,"cr662 (nucleic acid, listed as DNA, chemistry not fully specified) guide: GTTTAAGAGCTAAGCTGGAAACAGCATAGCAAGTATAAATAAGGCTAGTCCGTTATCAACTTGAAAAAGTGGCACCGAGTCGGTGCT",0.2491
8,"cr374 (nucleic acid, listed as DNA, chemistry not fully specified) guide: GTTTAAGAGCTAAGCTGGAAACAGCATAGCAAGTTTAAATAAGGATAGTCCGTTATCAACTTGAAAAAGTGGCACCGAGTCGGTGCT",0.2686
9,"cr154 (nucleic acid, listed as DNA, chemistry not fully specified) guide: GTTTAAGAGCTAAGCTGGAAACAGCATCGCAAGTTTAAATAAGGCTAGTCCATTATCAACTTGAAAAAGTGGCACCGAGTCGGTGCT",0.2827
10,"cr277 (nucleic acid, listed as DNA, chemistry not fully specified) guide: GTTTAAGAGCTAAGCTGGAAACAGCATAGCAAGTTTAAATAAAGCTAGTCTGTTATCAACTAGAAATAGTGGCACAGAGTCTGTGCT",0.2732
11,"cr246 (nucleic acid, listed as DNA, chemistry not fully specified) guide: GTTTAAGAGCTAAGCTGGAAACAGCATAGCAAGTTTAAAAAAGGCTGGTCCGTTATCAACTTGAAAAAGTGGCACCGAGTCGGTGCT",0.2779
12,"cr417 (nucleic acid, listed as DNA, chemistry not fully specified) guide: GTTTAAGAGCTAAGCTGGAAACAGCATAGCAATTTTAAATAAGGCTAGTCCGTTATCAACTTGAAGAAGTGGCACCGAGTCGGTGCT",0.2821
13,"cr217 (nucleic acid, listed as DNA, chemistry not fully specified) guide: GTTTAAGAGCTAAGCTGGAAACAGCATAGCAATTTTAAATAAGGCTAGTCCGTTATCAACTTGACAAAGTGGCACCGAGTCGGTGCT",0.2802
14,"cr792 (nucleic acid, listed as DNA, chemistry not fully specified) guide: GTTTAAGAGCTAAGCTGGAAACAGCATAGCAAGCTTAAATAAGGCTAGTCCGTTATCAACTTGAAAAAGTGCCACCGAGTCGGTGGT",0.242
15,"cr696 (nucleic acid, listed as DNA, chemistry not fully specified) guide: GTTTAAGAGCTAAGCTGGAAACAGCATAGCGAGTTTAAATAAGGCTCGTCCGTTATCCACTTGAAAAAGTGGCACCGAGTCGGTGCT",0.2553
16,"cr972 (nucleic acid, listed as DNA, chemistry not fully specified) guide: GTTTAAGAGCTAAGCTGGAAACAGCATAGCAAGTTTAAATAAGTGTACTACGTTATCAACCTGAAAAGGTGGCACCGAGTCGGTGCT",0.2767
17,"cr046 (nucleic acid, listed as DNA, chemistry not fully specified) guide: GGTTAACAGCTAAGCTGGAAACAGCATAGCAAGTTTAAATAAGGCTAGTCCGTTATCAACTTGAAAAAGTGGCACCGAGTCGGTGCT",0.2592
18,"cr331 (nucleic acid, listed as DNA, chemistry not fully specified) guide: GTTTAAGAGCTAAGCTGGAAACAGCATAGCAAGCTTAAATAAGGCTAGTCCGTTATCAACTTGAAAAAGTGGCATCGAGTCGATGCT",0.2828
19,"cr237 (nucleic acid, listed as DNA, chemistry not fully specified) guide: GTTTAAGAGCTAAGCTGGAAACAGCATAGCAAGTTTAAATAAGGATATTCCGTTATCAACGTGAAAACGTGGCACCCAGTGGGTGCT",0.2843
20,"cr720 (nucleic acid, listed as DNA, chemistry not fully specified) guide: GTTTAAGAGCTAAGCTGGAAACAGCATAGCAAGCTTAAATAAGGTTAATCCGTTATCAACTTGAAAAAGTGGCACCGAGTCGGTGCT",0.2481
21,"cr907 (nucleic acid, listed as DNA, chemistry not fully specified) guide: GTTTAAGAGCTAAGCTGGAAACAGCATAGCAAGTTTAAATAAGGCTAGTCCATTATCAACTTGTAAAAGTGGCACCGATTCGGTGCT",0.2821
22,"cr965 (nucleic acid, listed as DNA, chemistry not fully specified) guide: GTTTAAGAGCTAAGCTGGAAACAGCATAGCAAGTTTAAATAAGGGTACTCCGTTATCAACTTGAAAAAGTGGCCTCGAGTCGAGGCT",0.2572
23,"cr992 (nucleic acid, listed as DNA, chemistry not fully specified) guide: GTTTAAGAGCTAAGCTGGAAACAGCATTGCAAGTTTAAATAAGGCTAGTCCATTATCAACTTGAAAAAGTGGCACCGAGTCGGTGCT",0.2785
24,"cr158 (nucleic acid, listed as DNA, chemistry not fully specified) guide: GTTTAAGAGCTAAGCTGGAAACAGCATAGCAAGTTTAAATAAAGTTAATCTGTTATCAACTCGAAAGAGTGGCACCGAGTCGGTGCT",0.2403
25,"cr654 (nucleic acid, listed as DNA, chemistry not fully specified) guide: GTTTAAGAGCTAAGCTGGAAACAGCATAGCAAGATTAAATAAGGCTAGTCCGTTATCAACTTGATAAAGTGGCACCGAGTCGGTGCT",0.2692
26,"cr110 (nucleic acid, listed as DNA, chemistry not fully specified) guide: GTTTAAGAGCTAAGCTGGAAACAGCATAGCAAGTTTAAATAAGGATATTCCGTTATCAACTTGAAAAAGTGGCATTGAGTCAATGCT",0.2547
27,"cr480 (nucleic acid, listed as DNA, chemistry not fully specified) guide: GTTTAAGAGCTAAGCTGGAAACAGCATAGCAAGTTTAAATAAGGCTAGTCCGTTATCAAATTGAAAAATTGACACCTAGTAGGTGTT",0.2543
